# Columns and labels:
# PKD2, Q13563-1 [1] = biological target: T1, PKD2, Q13563-1
# T1 sequence: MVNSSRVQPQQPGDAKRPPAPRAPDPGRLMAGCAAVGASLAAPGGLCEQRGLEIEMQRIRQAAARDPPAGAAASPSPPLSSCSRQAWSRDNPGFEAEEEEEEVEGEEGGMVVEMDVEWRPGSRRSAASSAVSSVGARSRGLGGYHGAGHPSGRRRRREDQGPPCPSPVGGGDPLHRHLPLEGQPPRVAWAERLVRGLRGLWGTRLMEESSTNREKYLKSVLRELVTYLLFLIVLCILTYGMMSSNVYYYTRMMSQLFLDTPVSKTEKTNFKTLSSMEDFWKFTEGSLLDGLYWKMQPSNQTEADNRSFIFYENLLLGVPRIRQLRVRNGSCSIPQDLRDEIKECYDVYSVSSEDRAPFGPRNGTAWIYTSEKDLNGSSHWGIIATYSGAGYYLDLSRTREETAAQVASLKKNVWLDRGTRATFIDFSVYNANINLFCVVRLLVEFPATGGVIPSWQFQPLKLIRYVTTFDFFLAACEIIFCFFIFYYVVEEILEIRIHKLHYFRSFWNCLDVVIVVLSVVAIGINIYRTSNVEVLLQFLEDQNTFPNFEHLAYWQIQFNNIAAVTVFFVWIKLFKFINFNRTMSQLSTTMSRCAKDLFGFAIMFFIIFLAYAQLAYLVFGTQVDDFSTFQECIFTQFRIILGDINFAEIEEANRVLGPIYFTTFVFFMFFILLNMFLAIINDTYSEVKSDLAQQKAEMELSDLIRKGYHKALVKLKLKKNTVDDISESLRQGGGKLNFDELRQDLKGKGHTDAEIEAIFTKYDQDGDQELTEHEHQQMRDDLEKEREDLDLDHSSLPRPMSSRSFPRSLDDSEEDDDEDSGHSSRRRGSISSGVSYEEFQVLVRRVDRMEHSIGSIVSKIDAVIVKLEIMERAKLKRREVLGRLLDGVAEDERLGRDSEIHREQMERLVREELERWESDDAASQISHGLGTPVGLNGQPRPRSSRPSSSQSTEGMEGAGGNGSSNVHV
# PKD2, Q13563-1 [2] = biological target: T1, PKD2, Q13563-1; remark: listed apart in the source
Substance,"effect of a mutation on the interaction (PKD2, Q13563-1 [1])","effect of a mutation on the interaction (PKD2, Q13563-1 [2])"
Polycystin-1 (Homo sapiens) (from UniProt P98161-3) D4234A;Y4236A,decreasing interaction strength,–
Polycystin-1 (Homo sapiens) (from UniProt P98161-3) F4225A;L4228A,decreasing interaction strength,–
Polycystin-1 (Homo sapiens) (from UniProt P98161-3) L4228A;N4229A,decreasing interaction strength,–
Polycystin-1 (Homo sapiens) (from UniProt P98161-3) L4238A,decreasing interaction strength,–
Polycystin-1 (Homo sapiens) (from UniProt P98161-3) L4238A;L4242A,disrupting interaction strength,–
Polycystin-1 (Homo sapiens) (from UniProt P98161-3) Y4236R,decreasing interaction strength,–

# Next, values leading:
"effect of a mutation on the interaction (PKD2, Q13563-1 [1])","effect of a mutation on the interaction (PKD2, Q13563-1 [2])",Substance
decreasing interaction strength,–,Polycystin-1 (Homo sapiens) (from UniProt P98161-3) D4234R
decreasing interaction strength,–,Polycystin-1 (Homo sapiens) (from UniProt P98161-3) F4225A;R4227A
disrupting interaction strength,–,Polycystin-1 (Homo sapiens) (from UniProt P98161-3) L4238A;E4239A
decreasing interaction strength,–,Polycystin-1 (Homo sapiens) (from UniProt P98161-3) L4238A;L4242A;L4245A
decreasing interaction strength,–,Polycystin-1 (Homo sapiens) (from UniProt P98161-3) V4217A;L4228A
–,decreasing interaction strength,"Polycystin-1 (Mus musculus), O08852 L4229A;E4230A"
–,decreasing interaction strength,"Polycystin-1 (Mus musculus), O08852 L4229A;L4233A"
